Measured values reported in publication PMC10104521 (Proceedings of the National Academy of Sciences of the …, 2023).

Key:
[1] = target: T1, nonfarnesylated GBP1 (human), P32455; assay: dynamic light scattering; details: remark: other sources report otherwise
T1 chain: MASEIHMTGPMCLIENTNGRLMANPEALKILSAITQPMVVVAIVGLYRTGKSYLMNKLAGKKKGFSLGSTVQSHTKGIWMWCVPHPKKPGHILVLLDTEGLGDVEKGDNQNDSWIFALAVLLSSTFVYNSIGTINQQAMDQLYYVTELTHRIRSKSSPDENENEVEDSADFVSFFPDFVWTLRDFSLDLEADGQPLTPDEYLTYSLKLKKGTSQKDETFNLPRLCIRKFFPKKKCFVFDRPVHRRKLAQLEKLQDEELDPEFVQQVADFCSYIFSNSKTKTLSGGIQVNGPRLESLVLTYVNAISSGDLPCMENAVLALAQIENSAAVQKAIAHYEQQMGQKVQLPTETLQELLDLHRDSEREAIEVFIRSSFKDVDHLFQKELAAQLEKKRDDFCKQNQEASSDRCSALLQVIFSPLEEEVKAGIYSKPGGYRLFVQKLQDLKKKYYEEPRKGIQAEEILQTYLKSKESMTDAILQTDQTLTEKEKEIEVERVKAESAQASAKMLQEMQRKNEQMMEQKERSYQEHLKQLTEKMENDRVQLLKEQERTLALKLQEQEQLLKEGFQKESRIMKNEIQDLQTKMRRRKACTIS

[2] = target: the molecule itself; assay: dynamic light scattering
[3] = target: T2, farnesylated GBP1 (guanylate-binding protein 1) (human, UniProt P32455 1-592, C-terminal farnesyl moiety); assay: UV-absorbance-based light scattering
T2 sequence: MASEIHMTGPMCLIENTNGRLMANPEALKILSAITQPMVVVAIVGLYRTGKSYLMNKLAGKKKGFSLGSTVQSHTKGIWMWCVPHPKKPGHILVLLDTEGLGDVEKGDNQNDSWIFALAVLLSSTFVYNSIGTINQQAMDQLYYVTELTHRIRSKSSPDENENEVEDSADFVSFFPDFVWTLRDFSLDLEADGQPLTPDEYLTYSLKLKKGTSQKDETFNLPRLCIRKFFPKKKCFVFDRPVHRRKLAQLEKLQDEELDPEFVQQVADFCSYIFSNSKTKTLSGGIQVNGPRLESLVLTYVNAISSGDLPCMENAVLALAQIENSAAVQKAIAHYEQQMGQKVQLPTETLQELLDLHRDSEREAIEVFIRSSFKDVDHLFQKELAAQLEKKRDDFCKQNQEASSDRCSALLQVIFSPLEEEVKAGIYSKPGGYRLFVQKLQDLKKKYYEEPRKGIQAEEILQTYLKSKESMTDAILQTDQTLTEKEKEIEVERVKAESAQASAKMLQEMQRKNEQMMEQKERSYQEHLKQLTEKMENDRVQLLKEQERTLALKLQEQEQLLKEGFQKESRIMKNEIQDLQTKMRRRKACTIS

[4] = target: T3, geranylgeranylated GBP5 (guanylate-binding protein 5) (human), Q96PP8; assay: dynamic light scattering; details: remark: other sources report otherwise
T3 chain: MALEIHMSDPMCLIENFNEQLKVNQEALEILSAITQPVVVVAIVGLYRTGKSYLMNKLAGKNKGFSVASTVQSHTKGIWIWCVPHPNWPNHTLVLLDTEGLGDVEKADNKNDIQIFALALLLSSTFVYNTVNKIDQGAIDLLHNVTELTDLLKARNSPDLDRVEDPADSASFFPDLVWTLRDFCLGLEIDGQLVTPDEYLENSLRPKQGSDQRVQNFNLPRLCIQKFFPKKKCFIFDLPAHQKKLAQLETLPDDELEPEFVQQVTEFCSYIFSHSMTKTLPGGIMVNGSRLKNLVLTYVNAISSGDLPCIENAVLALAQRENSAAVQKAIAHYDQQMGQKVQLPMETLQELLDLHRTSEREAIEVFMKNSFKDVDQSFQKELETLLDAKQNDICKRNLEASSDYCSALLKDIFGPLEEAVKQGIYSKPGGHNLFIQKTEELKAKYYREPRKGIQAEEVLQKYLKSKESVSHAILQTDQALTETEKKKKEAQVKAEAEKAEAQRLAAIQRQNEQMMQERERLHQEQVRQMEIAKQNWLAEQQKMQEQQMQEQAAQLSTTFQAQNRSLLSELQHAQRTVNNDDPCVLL

[5] = target: T4, nongeranylgeranylated GBP5 (human), Q96PP8; assay: dynamic light scattering; details: remark: other sources report otherwise
T4 chain: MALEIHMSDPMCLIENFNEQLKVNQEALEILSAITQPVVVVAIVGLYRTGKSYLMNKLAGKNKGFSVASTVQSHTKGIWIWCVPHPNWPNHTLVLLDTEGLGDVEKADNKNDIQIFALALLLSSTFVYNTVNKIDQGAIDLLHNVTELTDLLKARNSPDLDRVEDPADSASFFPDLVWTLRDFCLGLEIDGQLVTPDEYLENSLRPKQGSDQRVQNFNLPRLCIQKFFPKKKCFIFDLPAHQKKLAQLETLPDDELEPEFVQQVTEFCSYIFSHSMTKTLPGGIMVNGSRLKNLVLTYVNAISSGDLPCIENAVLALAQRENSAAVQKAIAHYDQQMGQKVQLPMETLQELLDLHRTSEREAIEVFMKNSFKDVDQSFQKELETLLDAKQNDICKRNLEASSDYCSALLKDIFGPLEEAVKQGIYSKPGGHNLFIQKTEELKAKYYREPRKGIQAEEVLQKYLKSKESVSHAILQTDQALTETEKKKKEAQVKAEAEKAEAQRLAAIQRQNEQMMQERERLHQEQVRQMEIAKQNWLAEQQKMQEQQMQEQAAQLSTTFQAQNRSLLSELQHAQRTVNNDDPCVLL

B1: nonfarnesylated GBP1, P32455 1-592 (natural protein)
chain: MASEIHMTGPMCLIENTNGRLMANPEALKILSAITQPMVVVAIVGLYRTGKSYLMNKLAGKKKGFSLGSTVQSHTKGIWMWCVPHPKKPGHILVLLDTEGLGDVEKGDNQNDSWIFALAVLLSSTFVYNSIGTINQQAMDQLYYVTELTHRIRSKSSPDENENEVEDSADFVSFFPDFVWTLRDFSLDLEADGQPLTPDEYLTYSLKLKKGTSQKDETFNLPRLCIRKFFPKKKCFVFDRPVHRRKLAQLEKLQDEELDPEFVQQVADFCSYIFSNSKTKTLSGGIQVNGPRLESLVLTYVNAISSGDLPCMENAVLALAQIENSAAVQKAIAHYEQQMGQKVQLPTETLQELLDLHRDSEREAIEVFIRSSFKDVDHLFQKELAAQLEKKRDDFCKQNQEASSDRCSALLQVIFSPLEEEVKAGIYSKPGGYRLFVQKLQDLKKKYYEEPRKGIQAEEILQTYLKSKESMTDAILQTDQTLTEKEKEIEVERVKAESAQASAKMLQEMQRKNEQMMEQKERSYQEHLKQLTEKMENDRVQLLKEQERTLALKLQEQEQLLKEGFQKESRIMKNEIQDLQTKMRRRKACTIS
- stoichiometry N [1]: 2

B2: geranylgeranylated GBP2 (guanylate-binding protein 2) (natural protein, human, UniProt P32456 1-591, looked up)
chain: MAPEINLPGPMSLIDNTKGQLVVNPEALKILSAITQPVVVVAIVGLYRTGKSYLMNKLAGKKNGFSLGSTVKSHTKGIWMWCVPHPKKPEHTLVLLDTEGLGDIEKGDNENDSWIFALAILLSSTFVYNSMGTINQQAMDQLHYVTELTDRIKANSSPGNNSVDDSADFVSFFPAFVWTLRDFTLELEVDGEPITADDYLELSLKLRKGTDKKSKSFNDPRLCIRKFFPKRKCFVFDWPAPKKYLAHLEQLKEEELNPDFIEQVAEFCSYILSHSNVKTLSGGIPVNGPRLESLVLTYVNAISSGDLPCMENAVLALAQIENSAAVEKAIAHYEQQMGQKVQLPTETLQELLDLHRDSEREAIEVFMKNSFKDVDQMFQRKLGAQLEARRDDFCKQNSKASSDCCMALLQDIFGPLEEDVKQGTFSKPGGYRLFTQKLQELKNKYYQVPRKGIQAKEVLKKYLESKEDVADALLQTDQSLSEKEKAIEVERIKAESAEAAKKMLEEIQKKNEEMMEQKEKSYQEHVKQLTEKMERDRAQLMAEQEKTLALKLQEQERLLKEGFENESKRLQKDIWDIQMRSKSLEPICNIL
modifications: C-terminal geranylgeranyl moiety
- binding result [2]: binds
- binding result [3]: binds

B3: nongeranylgeranylated GBP2 (natural protein, human, UniProt P32456 1-591, looked up)
chain: MAPEINLPGPMSLIDNTKGQLVVNPEALKILSAITQPVVVVAIVGLYRTGKSYLMNKLAGKKNGFSLGSTVKSHTKGIWMWCVPHPKKPEHTLVLLDTEGLGDIEKGDNENDSWIFALAILLSSTFVYNSMGTINQQAMDQLHYVTELTDRIKANSSPGNNSVDDSADFVSFFPAFVWTLRDFTLELEVDGEPITADDYLELSLKLRKGTDKKSKSFNDPRLCIRKFFPKRKCFVFDWPAPKKYLAHLEQLKEEELNPDFIEQVAEFCSYILSHSNVKTLSGGIPVNGPRLESLVLTYVNAISSGDLPCMENAVLALAQIENSAAVEKAIAHYEQQMGQKVQLPTETLQELLDLHRDSEREAIEVFMKNSFKDVDQMFQRKLGAQLEARRDDFCKQNSKASSDCCMALLQDIFGPLEEDVKQGTFSKPGGYRLFTQKLQELKNKYYQVPRKGIQAKEVLKKYLESKEDVADALLQTDQSLSEKEKAIEVERIKAESAEAAKKMLEEIQKKNEEMMEQKEKSYQEHVKQLTEKMERDRAQLMAEQEKTLALKLQEQERLLKEGFENESKRLQKDIWDIQMRSKSLEPICNIL
- stoichiometry N [2]: 2

B4: geranylgeranylated GBP5 (guanylate-binding protein 5), Q96PP8 1-586 (natural protein)
chain: MALEIHMSDPMCLIENFNEQLKVNQEALEILSAITQPVVVVAIVGLYRTGKSYLMNKLAGKNKGFSVASTVQSHTKGIWIWCVPHPNWPNHTLVLLDTEGLGDVEKADNKNDIQIFALALLLSSTFVYNTVNKIDQGAIDLLHNVTELTDLLKARNSPDLDRVEDPADSASFFPDLVWTLRDFCLGLEIDGQLVTPDEYLENSLRPKQGSDQRVQNFNLPRLCIQKFFPKKKCFIFDLPAHQKKLAQLETLPDDELEPEFVQQVTEFCSYIFSHSMTKTLPGGIMVNGSRLKNLVLTYVNAISSGDLPCIENAVLALAQRENSAAVQKAIAHYDQQMGQKVQLPMETLQELLDLHRTSEREAIEVFMKNSFKDVDQSFQKELETLLDAKQNDICKRNLEASSDYCSALLKDIFGPLEEAVKQGIYSKPGGHNLFIQKTEELKAKYYREPRKGIQAEEVLQKYLKSKESVSHAILQTDQALTETEKKKKEAQVKAEAEKAEAQRLAAIQRQNEQMMQERERLHQEQVRQMEIAKQNWLAEQQKMQEQQMQEQAAQLSTTFQAQNRSLLSELQHAQRTVNNDDPCVLL
modifications: here or on the partner: C-terminal geranylgeranyl moiety; C-terminal geranylgeranyl moiety
- stoichiometry N [4]: 2

B5: geranylgeranylated GBP5 (guanylate-binding protein 5) (natural protein, human, UniProt Q96PP8 1-586, looked up)
chain: MALEIHMSDPMCLIENFNEQLKVNQEALEILSAITQPVVVVAIVGLYRTGKSYLMNKLAGKNKGFSVASTVQSHTKGIWIWCVPHPNWPNHTLVLLDTEGLGDVEKADNKNDIQIFALALLLSSTFVYNTVNKIDQGAIDLLHNVTELTDLLKARNSPDLDRVEDPADSASFFPDLVWTLRDFCLGLEIDGQLVTPDEYLENSLRPKQGSDQRVQNFNLPRLCIQKFFPKKKCFIFDLPAHQKKLAQLETLPDDELEPEFVQQVTEFCSYIFSHSMTKTLPGGIMVNGSRLKNLVLTYVNAISSGDLPCIENAVLALAQRENSAAVQKAIAHYDQQMGQKVQLPMETLQELLDLHRTSEREAIEVFMKNSFKDVDQSFQKELETLLDAKQNDICKRNLEASSDYCSALLKDIFGPLEEAVKQGIYSKPGGHNLFIQKTEELKAKYYREPRKGIQAEEVLQKYLKSKESVSHAILQTDQALTETEKKKKEAQVKAEAEKAEAQRLAAIQRQNEQMMQERERLHQEQVRQMEIAKQNWLAEQQKMQEQQMQEQAAQLSTTFQAQNRSLLSELQHAQRTVNNDDPCVLL
modifications: C-terminal geranylgeranyl moiety
- binding result [3]: binds

B6: nongeranylgeranylated GBP5, Q96PP8 1-586 (natural protein)
chain: MALEIHMSDPMCLIENFNEQLKVNQEALEILSAITQPVVVVAIVGLYRTGKSYLMNKLAGKNKGFSVASTVQSHTKGIWIWCVPHPNWPNHTLVLLDTEGLGDVEKADNKNDIQIFALALLLSSTFVYNTVNKIDQGAIDLLHNVTELTDLLKARNSPDLDRVEDPADSASFFPDLVWTLRDFCLGLEIDGQLVTPDEYLENSLRPKQGSDQRVQNFNLPRLCIQKFFPKKKCFIFDLPAHQKKLAQLETLPDDELEPEFVQQVTEFCSYIFSHSMTKTLPGGIMVNGSRLKNLVLTYVNAISSGDLPCIENAVLALAQRENSAAVQKAIAHYDQQMGQKVQLPMETLQELLDLHRTSEREAIEVFMKNSFKDVDQSFQKELETLLDAKQNDICKRNLEASSDYCSALLKDIFGPLEEAVKQGIYSKPGGHNLFIQKTEELKAKYYREPRKGIQAEEVLQKYLKSKESVSHAILQTDQALTETEKKKKEAQVKAEAEKAEAQRLAAIQRQNEQMMQERERLHQEQVRQMEIAKQNWLAEQQKMQEQQMQEQAAQLSTTFQAQNRSLLSELQHAQRTVNNDDPCVLL
- stoichiometry N [5]: 2
